In PMC10712694 (International Journal of Molecular Medicine, 2023):

Legend:
[1] = biological target: T1, RANK extracellular (ligand-binding) domain, Q30 to P213, His-tagged (UniProt O35305 30-213); assay: MST
T1 sequence (looked up): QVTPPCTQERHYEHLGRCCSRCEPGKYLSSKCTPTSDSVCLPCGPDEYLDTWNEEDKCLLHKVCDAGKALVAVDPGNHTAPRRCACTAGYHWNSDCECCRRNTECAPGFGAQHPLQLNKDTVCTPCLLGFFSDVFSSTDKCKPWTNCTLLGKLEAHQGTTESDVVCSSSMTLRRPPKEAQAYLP

[2] = biological target: T2, LGR4 extracellular (ligand-binding) domain, L62 to V464, His-tagged (UniProt A2ARI4 62-464); assay: MST
T2 sequence (looked up): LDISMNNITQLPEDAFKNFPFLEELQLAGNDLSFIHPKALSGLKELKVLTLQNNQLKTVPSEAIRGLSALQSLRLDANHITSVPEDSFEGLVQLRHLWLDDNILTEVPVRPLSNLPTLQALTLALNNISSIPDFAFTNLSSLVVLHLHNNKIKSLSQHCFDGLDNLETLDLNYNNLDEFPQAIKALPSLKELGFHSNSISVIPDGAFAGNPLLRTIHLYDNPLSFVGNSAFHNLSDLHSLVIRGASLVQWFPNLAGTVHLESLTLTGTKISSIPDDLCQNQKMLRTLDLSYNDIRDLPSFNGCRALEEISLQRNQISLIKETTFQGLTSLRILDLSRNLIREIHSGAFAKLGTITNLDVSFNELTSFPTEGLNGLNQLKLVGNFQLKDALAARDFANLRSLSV

B1: wild-type RANKL (receptor activator of nuclear factor-κB ligand) (ligand, UniProt O35235 139-316, looked up)
chain: FSGAPAMMEGSWLDVAQRGKPEAQPFAHLTINAASIPSGSHKVTLSSWYHDRGWAKISNMTLSNGKLRVNQDGFYYLYANICFRHHETSGSVPTDYLQLMVYVVKTSIKIPSSHNLMKGGSTKNWSGNSEFHFYSINVGGFFKLRAGEEISIQVSNPSLLDPDQDATYFGAFKVQDID
- Kd [1]: 0.0333 µM
- Kd [2]: 0.409 µM
